The supplement of paper PMC12042874
± gives the uncertainty stated by the source.

Assay: amyloid nucleation score (Sup35N fusion, yeast selection) (log enrichment); library NNK1; higher = more nucleation; inactive = no reads after selection
Method in brief: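 Three technical output replicates were used for random libraries. Psi-negative yeast expressing peptides of 20 random codons fused to Sup35N were induced with 100 μM copper sulfate for 24 hours and grown 7 days at 30°C on medium lacking adenine and uracil, and input and output plasmid inserts were Illumina-sequenced, excluding sequences with under 100 input reads. The nucleation score is the DiMSum log enrichment of output over input reads, centred on the mode score of non-aggregating sequences.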

Substance | amyloid nucleation score
VKPLLIHIRALLEM | 1.55 ± 0.52
DLIAARLAALF | -0.964 ± 0.39
FADLK | -0.88 ± 1.7
LSLDRNVATHKGSYPEWDNF | 0.752 ± 0.23
SYHLLMHMGIGQTLYKTRYD | 1.98 ± 0.21
YHLERKGPAFVNFLTMGSCR | -0.908 ± 0.85
VLATGVCACTGVYTFMTWWV | -0.455 ± 0.47
HIFWYCHMFPVVMASIIINS | 0.637 ± 0.59
FKCLARFWYADYLRFVFARQ | 0.297 ± 0.32
IPVVVV | 0.014 ± 0.24
DSQGFMRVISLMFVDGSLLA | 0.591 ± 0.54
CWVHQNNCADVGATGEQSHR | -0.029 ± 0.51
YNRLKSIV | 1.51 ± 0.72
MILRVVCHLNVCS | 6.921 ± 0.05
AVFGTIIESFMSGG | 0.399 ± 0.34
LISYRYFFCHRECVLVIGSN | 0.327 ± 0.6
YCCSCASCGPGVNRSWGN | 1.57 ± 0.16
RSSKGFMCMEMCLGWGQSTS | 3.41 ± 0.095
IFWTFRGITMPSC | 0.702 ± 0.55
GVLEVIYVSLFRGRAESVFR | 1.67 ± 0.34
WKVVCNVPVVWFFLKRLHLL | 0.498 ± 0.38
PMFWRYILFSANNEPQFIRQ | 0.073 ± 0.24
SYAGYGTNK | -0.242 ± 0.62
PVMLF | 4.33 ± 0.11

Substance | amyloid nucleation score
SWCHFVCLYPKHVFSVVSST | 0.562 ± 1.2
VQEFYDLKEYWS | -0.265 ± 0.35
GWENSLYNFFCLW | 0.342 ± 0.35
SHPVIL | 0.039 ± 0.29
LRSKCECNTRGSCAWWCSDA | 1.1 ± 0.9
LYMPSGNIFG | 0.973 ± 0.8
GSMDCLYVSYLGNYENRYRG | 0.232 ± 0.79
LGVVFGRRVHCRLASSVMNM | -0.723 ± 1.5
REITCR | -0.24 ± 0.26
LHVEWSASMSMFCLNHRIAA | -0.172 ± 0.61
VGISCPYYLGRGIMVEARSD | -0.006 ± 0.62
NVTDAI | inactive
AVFDSKLFLQSWVASTGIRV | inactive
TFGLRFVYMAHLVVWCADHR | 0.036 ± 0.33
APDRNDHDKLCCLCDNWSAL | 0.056 ± 1.4
GRYILGFE | 2.17 ± 0.17
GVMIWRQRWRKVIVGGALRW | -0.217 ± 0.63
ICCVVESLCYSVMFKHIS | 4.55 ± 0.079
MNKFNCRIMDDSDSALFSIA | 0.486 ± 0.4
MGVFRLNHSQTLRTGQSVEF | -1.18 ± 2.1
GCRMWFAWQVGVILMVDMFI | 0.307 ± 0.81
LGRGRKSTMVSQRVERAGVC | -0.626 ± 0.58
SIQCKKFGGIWCTDTRSIGP | 1.33 ± 0.33
KFRSEGWIGCESVIKW | 4.72 ± 0.078

Substance | amyloid nucleation score
WLSMANHLIISCGSCRFRAF | 0.973 ± 0.44
LRGIDRTALGSGSERYLCLL | -0.253 ± 0.59
PLPVNPYPTHATIGWPRISG | -0.427 ± 0.55
TQEKMSVGYYASNSLFWSML | 0.36 ± 1.2
CCADPMHYTFHSSNLVFPLM | 0.294 ± 0.37
AWILRWKEIPMEYSLSS | 0.202 ± 0.56
HLSSTVITLVPCRLEMYLEG | 0.55 ± 0.25
YNLWIGLCRIMEEVILGGT | -0.863 ± 0.61
HQLGQYHTACHAPSARCTPL | -0.221 ± 0.52
SIGNKYKSIVWYFKCCLANL | 5.97 ± 0.066
YSNFFQHRTWMIDCSFPTGL | 0.147 ± 0.37
KWLLTDDLRSGISAWWECPL | -0.233 ± 0.62
KWGHSENVVVYFDGAFSWVS | 0.16 ± 0.6
TIQPRRWYVYSKQFLWNLCC | 1.35 ± 0.14
APEGLPMDAPGLGWVNRVII | -0.295 ± 0.8
LAMRAMIRNVLFTKSQLHDR | -0.154 ± 0.38
CTHRSFFSSNAIAVRLDLSW | inactive
GLPKSFM | -0.981 ± 1.3
AFLQLDS | 0.665 ± 0.36
INLMGSPS | -0.708 ± 0.28
VWSAMDKALLDSGDGSPMG | 0.138 ± 0.36
HYIIIRFLNAELTLCHLRMI | -1.61 ± 1.7
